Assay results from patent US20230242577A1 (UBIPROTEIN, published 2023).

B1: pcDNA3-myc-interferon-β WT (ligand)
chain: MSYNLLGFLQRSSNFQCQKLLWQLNGRLEYCLKDRMNFDIPEEIKQLQQFQKEDAALTIYEMLQNIFAIFRQDSSSTGWNETIVENLLANVYHQINHLKTVLEEKLEKEDFTRGKLMSSLHLKRYYGRILHYLKAKEYSHCAWTIVRVEILRNFYFINRLTGYLRN
notes: also called IFN-β; human interferon-β; not shown: myc tag of the pcDNA3-myc vector
B2: pCMV3-C-myc-VEGFA WT (ligand)
chain: APMAEGGGQNHHEVVKFMDVYQRSYCHPIETLVDIFQEYPDEIEYIFKPSCVPLMRCGGCCNDEGLECVPTEESNITMQIMRIKPHQGQHIGEMSFLQHNKCECRPKKDRARQEKKSVRGKGKGQKRKRKKSRPCGPCSERRKHLFVQDPQTCKCSCKNTDSRCKARQLELNERTCRCDKPRR
notes: also called vascular endothelial growth factor A; human VEGFA; not shown: myc tag of the pCMV3-C-myc vector
B3: pcDNA3-myc-β-trophin WT (ligand)
chain: APMGGPELAQHEELTLLFHGTLQLGQALNGVYRTTEGRLTKARNSLGLYGRTIELLGQEVSRGRDAAQELRASLLETQMEEDILQLQAEATAEVLGEVAQAQKVLRDSVQRLEVQLRSAWLGPAYREFEVLKAHADKQSHILWALTGHVQRQRREMVAQQHRLRQIQERLHTAALPA
notes: also called human β-trophin; not shown: myc tag of the pcDNA3-myc vector
B4: pcDNA3-myc-GLP-1 WT (ligand)
chain: HAEGTFTSDVSSYLEGQAAKEFIAWLVKGRG
notes: also called glucagon-like peptide-1; human GLP-1; not shown: myc tag of the pcDNA3-myc vector
B5: pcDNA3-myc-G-CSF WT (ligand)
chain: TPLGPASSLPQSFLLKCLEQVRKIQGDGAALQEKLVSECATYKLCHPEELVLLGHSLGIPWAPLSSCPSQALQLAGCLSQLHSGLFLYQGLLQALEGISPELGPTLDTLQLDVADFATTIWQQMEELGMAPALQPTQGAMPAFASAFQRRAGGVLVASHLQSFLEVSYRVLRHLAQP
notes: also called human G-CSF; not shown: myc tag of the pcDNA3-myc vector
B6: pCMV3-C-myc-prepro-GHRL WT (ligand)
chain: GSSFLSPEHQRVQQRKESKKPPAKLQPRALAGWLRPEDGGQAEGAEDEMEVRFNAPFDVGIKLSGVQYQQHSQALGKFLQDILWEEAKEAPADK
notes: also called Ghrelin/obestatin preprohormone; appetite stimulating hormone precursor; not shown: myc tag of the pCMV3-C-myc vector

Each binder was assayed against T1, HA-ubiquitin (from pMT123-HA-ubiquitin) (UniProt P0CG47 1-76) (assay: anti-myc IP, anti-HA blot, HEK 293T co-transfected with HA-ubiquitin (ubiquitination)).
T1 construct: one ubiquitin unit is residues 1-76; not shown: HA tag of pMT123-HA-ubiquitin

Row | binding result | Binder
1 | binds | B1
2 | binds | B2
3 | binds | B3
4 | binds | B4
5 | binds | B5
6 | binds | B6
